Measured values published in the nanobody polyreactivity screen of Harvey et al. (2022).

Test: yeast display, Sf9 membrane polyspecificity reagent, FACS + sequencing; frameworks hold sequencing errors
Procedure, shortened: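 Galactose-induced (36–48 hours) yeast carrying a synthetic nanobody display library were exposed to 10% biotinylated, detergent-solubilized Sf9 membrane reagent at 4 °C for 1 hour. FACS followed streptavidin microbead enrichment, using low and high (top ~1%) gates for expression (anti-HA) and reagent binding (streptavidin). Colony PCR, MiSeq 2 × 250 sequencing and CDR-length filtering followed. Labels for polyreactivity reflect the gate of origin.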

Row | Sequence | polyreactivity (PSR sort gate)
1 | QVQLVESGGGLVQAGGSLRLSCAASGSIFAAYTMGWYRQAPGNERELVAAISVSTVSTYYADSVKGRFTISRDNAKNTVYLQMNSLKPEDTAVYYCNADATDSYPEKDEHESWGQGTQVTVSS | low polyreactivity
2 | QVQLVESGGGLVQAGGSLRLSCAASGRTFRLYAMGWYRQAPGKERELVAAITRGGRTNYADSVKGRFTISRDNAKNTVYLQMNSLKPEDTAVYYCATDLVGAGVKGVRFVGRYRGDYWGQGTQVTVSS | low polyreactivity
3 | QVQLGESGGGLVQAGGSLRLSCAASGSTFVDNTMGWYRQAPGKERELVAAITRSGGSTYYADSVKGRFTISRDNAKNTVYLQMNSLNPEDTAVYYCATYPYSPYFYVYVEPYVYWGQGTQVTVSS | low polyreactivity
4 | QVQLVESGGGLVQAGGSLRLSCAASGRIFYRYAMGWYRQAPGKERELVAAISSAGSTNYADSVKGRFTISRDNAKNTVYLQMNSLKPEDTAVYYCNTVTRWVGKLEYWGQGTQVTVSS | high polyreactivity
5 | QVQLVESGGGLVQAGCSLRLSCAASGSIFAAYPMGWYRQAPGKERELVAAISRSCGSTYYADSVKGRFTISRDNAKNTVYLQMNSLKPEDTAVYYCAADTYGYRHDNYDYWGQGTQVTVSS | low polyreactivity
6 | QVQLVESGGGLVQAGGSLRLSCAASGSIIYPYVMGWYRQAPGKERELVAAISASGGSTYYADSMKGRFTISRDNAKNTVYLQMNSLKPEDTGVYYCAKYYRFRDDYDYWGQGTQVTVSS | high polyreactivity
7 | QVQLQESGGGLAQAGGSLRLSCAASGTIFPADSMGWYRQAPGKERELVAGITSGANTYYADSVKGRFTISHDNAKYTVYLQMDSLIPEDIAVYYCAAPGSSTYDLEYWGQGTQVTVSS | high polyreactivity
8 | QVQLVESGGGLVQAGGSLRLSCAASGSIFPRYAMGWYRQAPGKERELVAAITGSGSSTYYADSVKGRFTISRDNAKNTVYLQMNSLKPEDTAVYYCAGVYTYPLGYYHYTYDYWGQGTQVTVSS | low polyreactivity
9 | QVQLVESGGGLVQAGGSLRLSCAASGYIFRFNAMGWYRQAPGKERELVAVITSGARTYYADSVKGRFTISRDNAKNTVYLQMNSLKPEDTAVYYCNAGARRYLYDYWGQGTQVTVSS | low polyreactivity
10 | QVQLVESGGGLVQAGCSLRLSCAASGRTFPYYAMGWYRQAPGKERELVARIRSDGSTNYADSVKGRFTISRDNAKNTVYLQMNSLKPEDTAVYYCTADVGFEPPWYDWSWDNEYWGQGTQVSVSS | low polyreactivity
11 | QVQLVESGGGLVQAGGSLRLSCAASGRIFFVNAMGWYRQAPGKERELVAAISRGGSTNYADSVKGRFTISRDNAKNTVYLQMNSLKPEDTEVYYCNADGSSYWYPVPLDGGDYWGQGTQVTVSS | low polyreactivity
12 | QVQLVESGGGLVQAGGSLRLSCAASGSIFGTNVMGWYRQAPGKERELVAAITASGSRTYYADSVKGRFTISRDNAKNTVYLQMNSLKPEDTAVYYCATVSRFGFKDFDYWGQGTQVTVSS | high polyreactivity
13 | QVQLVESGGGLVQAGGSLRVSCAASGSTFCSNAKGWYRQAPGKERELVAAISSGGSTNYADSVKGRFTISRDNAKNTVYLQMYSLKPEDTAVYYCAADRSPEYYWGQGTQVTVSS | low polyreactivity
14 | QVQLVESGGGLVQAGGSLRLSCAASGRIFLINAMGWYRQAPGKERELVAAITGGGGSTYYADSVKGRFTISRDNAKNTVYLQMNSLKPEDTAVYYCAARGTAERDYWGQGTQVTVSS | high polyreactivity
15 | QVQLVESGGGLVQAGGSLRLSCAASGSIFQHYAMGWYRQAPGKVRELVAAISSDTTSTYYADSVKGRFTISRDNAKNTVYLQMHSLKPEDTAVYYCNTYPEVYGPFQYDYWGQGTQVTVSS | low polyreactivity
16 | QVQLVESGGGLVQAGGSLRLSCAASGYTFRYYAMVWYRQAPGKEREMVAAINGGDITNYADSVKGRFTISRDNAKNTVYLQMNSLKPVDTAVYYCAADGEDSLWTCYDYDYWGQGTQVTVSS | low polyreactivity

Row | Sequence | polyreactivity (PSR sort gate)
17 | QVQLVESGGGLVQAGGSLRLSCAASGRNFTRNAMGWYRQAPGKEREFVAAISWSGGSTYYADSVKGRFTLSRDNAKNTVYVQMNSLKPEDTAVYYCAAKNCGGYVSWYDYWGQGTQVTVSS | low polyreactivity
18 | QVQLVESGGGLVQAGGSLRLSCAASGFTIRSYVMGWYRQAPGKERELVAAIRRSGGSTYYADSVKGRFTISRDNAKNTVYLHMNSMKPEDTAVYYCAAKAYTYYARIGFDYWGQGSQVTVSS | high polyreactivity
19 | QLQLEESGGGLVQAGGSLRLSCAASGRTFRYYSMGWYRHAPGKEREMVAAISSSGDRTYYADSVKGRFTISRDNATNTVYIQMNSLKPEDTAVYYCANVPYYSRPHDYWGQGTQVTVSS | high polyreactivity
20 | QVQLVESGGGLVQAGGSLRLSCAASGRTFDYNAMGWSRQAPGKERELVAAISSSGGSTYYADSVKGRFTISRDNAKNTVYLQMNSLKPEDTAVYYCATLYPRKSIYYYWGQGTQVTVSS | high polyreactivity
21 | QVQLVESGGGLVQAGGSLRLSCAASGRILAPYVMGWYRQAPGKERELVAAISRSTGRTYYADSVKGRFTISRDNAKNTVYLQMNSLKPEDTAVYYCNRDVRVSLMGYWGQGTQVTVSS | high polyreactivity
22 | QVQIVESGAGLVQAGGSLRLSCAASGSIYAPNAMGWYRQAPGKERELVAAISRSGGRTYYADSVKGRFTISRDNAKNTVYLQMNSLKPEDTAVYYCAADYKHQRTYGSWGQGTQVSVSS | high polyreactivity
23 | QVQLVESGGGLVQAGGSLRLSCADSASIFRNAMGWYRQAPRKERELVAGIRWSDGSTNYADSVKGRFTISRDNANITVYLQMNSLKPEDTAVYYCAKGAYFARRMYYWGQGTQVTVSS | low polyreactivity
24 | QVELVASGGGLVQAGGSLRIRCAASGGIFDGNAKGWYRQAPGKEREMVAAISSGGITKYAASVKGRFTISRDNAQYTVYLQMNSLKPEDSAVYYCAASWDRYRFIRNDYWGQGTQVTVSS | high polyreactivity
25 | QVQLVESGGGLVQAGGSLRLSCAASGRTFQQNAMGWYRQAPGKERELVAAINSRGGRTYYADSVKGRFTISRDNAKNTVYLQMNSLKPEDTAVYYCNAVVYTRPYTRPRYRYDYWGQGTQVTVSS | high polyreactivity
26 | QVQLVESGGGLVQAGGSLRLSCAASGSIFDYNAMGWNRQAPGKETELVAAITSTDSTYADSVKGRFTISRDNAKNTVYLQMNSLKPEDTAVYYCAAEDVIYYLTGQWREYDYWGQGTQVNVSS | low polyreactivity
27 | QVQLVESGGGLVQAGGSLRLSCAASGRTFKIYAMGWYRQAPGKEREFVASINWSGGITYYADSVKGRFTISRDNAKNTVYLQMNSLKPEDTAVYYCAARIDSSRIGKRFYYWGQGTQVTVSS | high polyreactivity
28 | QVQLVESGGGLVQAGGSLRLSCAASGSIFDSNAMGWYRQAPGKERELVAVITGSGGITYYADSVKGRFTISRDNAKNTVYLQMNRLKPEDTAVYYCYADYYLSEDGTWIYDYWGQGTQVTVSS | high polyreactivity
29 | QVQLVESGGGLVQAGGSLRLSCAASGRTFVRYAMGWYRQAPGKEREFVAAISWSTGSTYFADSVKGRFTISRDNAKNTVYLQMNSLKPEDTAVYYCAADGYTTYWLLYEYDYWGQGTQVTVSS | low polyreactivity
30 | QVQHVESGGGLVQAGGSLRLSCAASGSILGVNAMGWYRQAPGKERELVAAISRTGGTTYYADSVKGRFTISRDNAKNTVYLQMHSLKPEDTAVYYCAGDVVFTSVPTGYLGYEYWGQGTQVTVSS | high polyreactivity
31 | QVQLVESGGGLVQAGGSRRLSCAASGNIFPQNGMGWYRQAPAKERELVAAITRGGSTYYADSVKGRFTISRDNAKNTVYVQMHSLKPEDTAVYDCAAVRPQYRRRTKANPYNYWGQGTQVTVSS | high polyreactivity
